# Results: article doi:10.1101/2020.01.21.912428
# Columns and labels:
# [1] = molecular target: dTBCE^mutCG-GFP expressed in Drosophila embryos (Drosophila melanogaster) (UniProt A1Z6J5); test: fluorescence microscopy of beads
# [2] = molecular target: dTBCE-GFP expressed in Drosophila embryos (Drosophila melanogaster) (UniProt A1Z6J5); test: fluorescence microscopy of beads
substance,measurement,setting,value
bovine brain tubulin supplemented with 25 % of tubulin-rhodamin (from UniProt Q6B856 1-445) (complex),mean fluorescence intensity in the tubulin-rhodamine channel,[1],4.7 a.u.
same,mean fluorescence intensity in the tubulin-rhodamine channel,[2],25.9 a.u.
